The data set deals with Moloney murine leukemia virus reverse transcriptase N-terminal fragment (MMLV RT) (Moloney murine leukemia virus, UniProt P03355 683-937). Kind of data set: X-ray crystallography.
Moloney murine leukemia virus reverse transcriptase N-terminal fragment (MMLV RT), sequence (P03355 683-937): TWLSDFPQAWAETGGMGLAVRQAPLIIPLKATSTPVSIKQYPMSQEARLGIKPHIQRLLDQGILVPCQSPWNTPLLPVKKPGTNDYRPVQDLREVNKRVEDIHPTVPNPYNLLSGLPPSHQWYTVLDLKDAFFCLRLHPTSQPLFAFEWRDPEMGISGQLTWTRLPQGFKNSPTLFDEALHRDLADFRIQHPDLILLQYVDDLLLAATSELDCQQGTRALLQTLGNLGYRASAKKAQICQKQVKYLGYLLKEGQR

B1: 16-mer AATT duplex (dsDNA)
DNA 1: CTTAATTCGAATTAAG
DNA 2: CTTAATTCGAATTAAG
B1: the binding result is reported as “binds”.
